Data reported in paper PMC12146848, “Deciphering meiotic chromatin organization by SYCP3”.

Legend:
SYCP3 [1] = target: T1, SYCP3 (Mus musculus, UniProt P70281); assay: EMSA; 0.2 uM probe, 1 ug SYCP3 in 15 ul; Beyotime GS008 Gel-Shift binding buffer (composition and pH not given), 15 ul, 1 h at room temperature, 4% polyacrylamide gel; settings: protein: recombinant; tags: C-terminal 6xHis; chain copies: 4; label: 3' biotin-dUTP added by TdT on both strands; blunt before 3' TdT labeling
T1 sequence: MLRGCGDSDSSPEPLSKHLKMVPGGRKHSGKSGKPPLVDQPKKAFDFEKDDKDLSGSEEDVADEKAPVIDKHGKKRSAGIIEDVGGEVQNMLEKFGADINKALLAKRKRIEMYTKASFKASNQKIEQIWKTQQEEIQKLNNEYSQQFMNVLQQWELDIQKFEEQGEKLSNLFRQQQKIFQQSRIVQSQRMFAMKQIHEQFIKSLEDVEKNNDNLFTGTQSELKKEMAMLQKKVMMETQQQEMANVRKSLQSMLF

SYCP3 [2] = target: T1, SYCP3; assay: competition; 50-fold excess against labeled WT Probe; efficient competition; Beyotime GS008 Gel-Shift binding buffer (composition and pH not given), 15 ul, 1 h at room temperature, 4% polyacrylamide gel; settings: protein: recombinant; tags: C-terminal 6xHis; chain copies: 4; label: unlabeled; blunt
SYCP3 [3] = target: T1, SYCP3; assay: competition; 50-fold excess against labeled WT Probe; higher affinity than WT; Beyotime GS008 Gel-Shift binding buffer (composition and pH not given), 15 ul, 1 h at room temperature, 4% polyacrylamide gel; settings: protein: recombinant; tags: C-terminal 6xHis; chain copies: 4; label: unlabeled; blunt
SYCP3 [4] = target: T1, SYCP3; assay: EMSA; stronger than WT Probe; Beyotime GS008 Gel-Shift binding buffer (composition and pH not given), 15 ul, 1 h at room temperature, 4% polyacrylamide gel; settings: protein: recombinant; tags: C-terminal 6xHis; chain copies: 4; label: 3' biotin-dUTP added by TdT on both strands; blunt before 3' TdT labeling

B1: WT Probe (dsDNA)
DNA 1: ACAGTCCTGGTGATTGAACTCCGGCCCTGGGCATGCCAGGCGAGCACTCCACTCTTTGAG
DNA 2: CTCAAAGAGTGGAGTGCTCGCCTGGCATGCCCAGGGCCGGAGTTCAATCACCAGGACTGT
binding result (SYCP3 [1]): binds

B2: WT competitor (dsDNA)
DNA 1: ACAGTCCTGGTGATTGAACTCCGGCCCTGGGCATGCCAGGCGAGCACTCCACTCTTTGAG
DNA 2: CTCAAAGAGTGGAGTGCTCGCCTGGCATGCCCAGGGCCGGAGTTCAATCACCAGGACTGT
binding result (SYCP3 [2]): binds

B3: Mut competitor (dsDNA)
DNA 1: GTGACTTCAACAGCCAGGTCTTAATTTCAAATGCATTGAATAGATGTCTTGTCTCCCAGA
DNA 2: TCTGGGAGACAAGACATCTATTCAATGCATTTGAAATTAAGACCTGGCTGTTGAAGTCAC
binding result (SYCP3 [3]): binds

B4: Mut probe (dsDNA)
DNA 1: GTGACTTCAACAGCCAGGTCTTAATTTCAAATGCATTGAATAGATGTCTTGTCTCCCAGA
DNA 2: TCTGGGAGACAAGACATCTATTCAATGCATTTGAAATTAAGACCTGGCTGTTGAAGTCAC
binding result (SYCP3 [4]): binds
